In patent publication US20110117099A1 one finds concentration data, which are given here for one substance.

The experiment has as its target type I Collagen (Sigma). Nature of the experiment: solid phase assay, biotinylated rBSdrF titrated on collagen-coated wells.

With “purified recombinant B domain of SdrF (rBSdrF), N-terminal His tag (from UniProt Q9KI14 678-1128)”, the concentration at which maximum binding occurs is 20 ng/mL.
